Like-named read-outs stand apart in the source and are kept apart here.
Assays:
Experiment in all cases: EMSA
IHO1 coiled-coil domain = target: T1, IHO1 coiled-coil domain (Mus musculus, UniProt Q6PDM4 109-267)
T1 sequence: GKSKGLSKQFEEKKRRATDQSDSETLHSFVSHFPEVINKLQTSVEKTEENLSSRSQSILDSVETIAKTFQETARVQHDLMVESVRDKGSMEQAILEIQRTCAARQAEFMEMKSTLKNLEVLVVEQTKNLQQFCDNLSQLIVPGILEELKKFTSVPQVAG

Rec15 coiled-coil domain = target: T2, Rec15 coiled-coil domain (Schizosaccharomyces pombe, UniProt Q09094 1-160)
T2 sequence: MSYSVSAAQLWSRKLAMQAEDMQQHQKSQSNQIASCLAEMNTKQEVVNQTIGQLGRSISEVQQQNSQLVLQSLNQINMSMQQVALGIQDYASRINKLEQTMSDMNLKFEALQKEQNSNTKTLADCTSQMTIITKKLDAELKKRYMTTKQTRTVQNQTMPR

[1] = target: T3, IHO1-KKRR coiled-coil domain (Mus musculus, UniProt Q6PDM4 109-267, K121A;K122A;R123A;R124A)
T3 sequence: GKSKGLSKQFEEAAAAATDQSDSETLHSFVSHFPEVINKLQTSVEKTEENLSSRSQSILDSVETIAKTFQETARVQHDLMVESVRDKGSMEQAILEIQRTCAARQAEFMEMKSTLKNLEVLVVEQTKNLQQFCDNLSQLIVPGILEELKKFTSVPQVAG

[2] = target: T4, Rec15-5KR coiled-coil domain (Schizosaccharomyces pombe, UniProt Q09094 1-160, K134A;K135A;K141A;K142A;R143A)
T4 sequence: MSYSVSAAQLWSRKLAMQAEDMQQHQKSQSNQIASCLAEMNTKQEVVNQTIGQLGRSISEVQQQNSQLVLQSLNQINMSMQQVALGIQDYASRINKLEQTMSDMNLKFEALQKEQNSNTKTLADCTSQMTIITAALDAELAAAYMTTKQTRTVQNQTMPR

[3] = target: T5, Rec114-6KR C-terminal domain;Mei4 N-terminal domain (Saccharomyces cerevisiae;Saccharomyces …, UniProt P32841;P29467 375-428;1-43, R395A;K396A;K399A;R400A;K403A;K407A|)
T5 sequence 1: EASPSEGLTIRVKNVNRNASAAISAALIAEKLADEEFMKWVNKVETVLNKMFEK
T5 sequence 2: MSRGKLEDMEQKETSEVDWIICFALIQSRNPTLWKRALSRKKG

Mer2-KKTK mutant = target: T6, Mer2-KKTK mutant (Saccharomyces cerevisiae, UniProt P21651 1-314, K137A;K138A;K140A)
T6 sequence: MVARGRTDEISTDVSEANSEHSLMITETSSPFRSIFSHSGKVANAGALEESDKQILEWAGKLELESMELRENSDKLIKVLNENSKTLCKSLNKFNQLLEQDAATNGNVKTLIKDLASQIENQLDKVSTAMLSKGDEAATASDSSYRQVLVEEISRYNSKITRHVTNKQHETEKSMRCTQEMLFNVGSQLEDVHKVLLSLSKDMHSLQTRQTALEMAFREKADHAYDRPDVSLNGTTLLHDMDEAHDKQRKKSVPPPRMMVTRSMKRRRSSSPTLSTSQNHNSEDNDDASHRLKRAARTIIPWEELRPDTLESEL

Mer2 [4] = target: T7, Mer2 (Saccharomyces cerevisiae, UniProt P21651 1-314)
T7 sequence: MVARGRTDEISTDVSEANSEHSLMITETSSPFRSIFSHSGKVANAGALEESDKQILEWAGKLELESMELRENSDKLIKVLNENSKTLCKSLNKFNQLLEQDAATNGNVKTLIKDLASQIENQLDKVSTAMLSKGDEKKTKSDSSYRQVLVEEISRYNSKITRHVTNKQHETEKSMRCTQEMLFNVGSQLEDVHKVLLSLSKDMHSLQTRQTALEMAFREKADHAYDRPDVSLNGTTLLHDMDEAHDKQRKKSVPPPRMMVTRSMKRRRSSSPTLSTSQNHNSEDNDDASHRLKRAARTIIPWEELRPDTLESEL

Mer2 [5] = target: T7, Mer2; remark: listed apart in the source

B1: HJ40 fluorescent (dd077/cb096/cb097/cb098) (structured_DNA)
DNA 1: CTAGTATAGAGCCGGCGCGCCATGTCTAGATAGCGTTAGGTCTGCCGAATAGTACTACTCGGATCCCGAGCGAACCACGC
DNA 2: GCGTGGTTCGCTCGGGATCCGAGTAGTACTATTCGGCAGAGGATTCGAATAGGCCTAATCGAATTCCGCCATCGATGCAC
DNA 3: GTGCATCGATGGCGGAATTCGATTAGGCCTATTCGAATCCAGACGCGAGTAGATCTTCACGGTACCCGCGGTTACCCGTG
DNA 4: CACGGGTAACCGCGGGTACCGTGAAGATCTACTCGCGTCTCCTAACGCTATCTAGACATGGCGCGCCGGCTCTATACTAG
binding result (IHO1 coiled-coil domain): binds
binding result (Rec15 coiled-coil domain): binds
binding result [1]: no binding
binding result [2]: no binding
binding result [3]: no binding
binding result (Mer2-KKTK mutant): binds

B2: dsDNA 80 bp (cb095/cb100) (dsDNA)
DNA 1: CTAGTATAGAGCCGGCGCGCCATGTCTAGATAGCGTTAGGTCTGCCGAATAGTACTACTCGGATCCCGAGCGAACCACGC
DNA 2: GCGTGGTTCGCTCGGGATCCGAGTAGTACTATTCGGCAGACCTAACGCTATCTAGACATGGCGCGCCGGCTCTATACTAG
apparent K (half saturation) (Mer2 [4]): 36.8 ± 13.3 nM

B3: HJ20 (cb922/cb923/cb924/cb925) (structured_DNA)
DNA 1: CAACGTGGGCAAAGATGTCCTAGCAATGTAATCGTCTATG
DNA 2: ATTCTACCAGTGCCAGTGATGGACATCTTTGCCCACGTTG
DNA 3: ATCCTCTAGACAGCTCCATGATCACTGGCACTGGTAGAAT
DNA 4: CATAGACGATTACATTGCTACATGGAGCTGTCTAGAGGAT
apparent K (half saturation) (Mer2 [5]): 23.9 ± 2.9 nM
